Tests used:
[1] = molecular target: T1, BTN1A1 peptide 4 Mutant 11 (A371G) (human); experiment: kinetics of peptide on STC43H11-1, separate assay, method not named
T1 construct: The entry already carries the mutation; also called BTN1A1-pep4- Mutant 11
T1 peptide: EVEVGDRTDWGIGVC

[2] = molecular target: T2, BTN1A1 Peptide 4 (human); experiment: as above
T2 construct: also called BTN1A1-pep4- WT; Pep4
T2 peptide: EVEVGDRTDWAIGVC

[3] = molecular target: T3, BTN1A1 peptide 4 Mutant 10 (W370A) (human); experiment: as above
T3 construct: The entry already carries the mutation; also called BTN1A1-pep4- Mutant 10; mutant peptide #10
T3 peptide: EVEVGDRTDAAIGVC

[4] = molecular target: T4, BTN1A1 peptide 4 Mutant 8 (T368A) (human); experiment: as above
T4 construct: The entry already carries the mutation; also called BTN1A1-pep4- Mutant 8
T4 peptide: EVEVGDRADWAIGVC

[5] = molecular target: T5, BTN1A1 peptide 4 Mutant 12 (I372A) (human); experiment: as above
T5 construct: The entry already carries the mutation; also called Mutant 12 (1372A); BTN1A1-pep4- Mutant 12
T5 peptide: EVEVGDRTDWAAGVC

[6] = molecular target: T6, BTN1A1 peptide 4 Mutant 6 (D366A) (human); experiment: as above
T6 construct: The entry already carries the mutation; also called BTN1A1-pep4- Mutant 6; mutant peptide #6
T6 peptide: EVEVGARTDWAIGVC

[7] = molecular target: T7, BTN1A1 peptide 4 Mutant 9 (D369A) (human); experiment: as above
T7 construct: The entry already carries the mutation; also called BTN1A1-pep4- Mutant 9
T7 peptide: EVEVGDRTAWAIGVC

[8] = molecular target: T8, TRIM11 peptide; experiment: as above
T8 peptide: EVEVGDRTSWALGVC

[9] = molecular target: T9, BTN1A1 peptide 4 Mutant 5 (G365A) (human); experiment: as above
T9 construct: The entry already carries the mutation; also called BTN1A1-pep4- Mutant 5
T9 peptide: EVEVADRTDWAIGVC

[10] = molecular target: T10, mouse BTN1A1 (mouse, UniProt Q62556 27-524, limits assumed); experiment: immunohistochemistry, 2 ug/mL
T10 construct: also called mBTN1A1
T10 sequence (looked up): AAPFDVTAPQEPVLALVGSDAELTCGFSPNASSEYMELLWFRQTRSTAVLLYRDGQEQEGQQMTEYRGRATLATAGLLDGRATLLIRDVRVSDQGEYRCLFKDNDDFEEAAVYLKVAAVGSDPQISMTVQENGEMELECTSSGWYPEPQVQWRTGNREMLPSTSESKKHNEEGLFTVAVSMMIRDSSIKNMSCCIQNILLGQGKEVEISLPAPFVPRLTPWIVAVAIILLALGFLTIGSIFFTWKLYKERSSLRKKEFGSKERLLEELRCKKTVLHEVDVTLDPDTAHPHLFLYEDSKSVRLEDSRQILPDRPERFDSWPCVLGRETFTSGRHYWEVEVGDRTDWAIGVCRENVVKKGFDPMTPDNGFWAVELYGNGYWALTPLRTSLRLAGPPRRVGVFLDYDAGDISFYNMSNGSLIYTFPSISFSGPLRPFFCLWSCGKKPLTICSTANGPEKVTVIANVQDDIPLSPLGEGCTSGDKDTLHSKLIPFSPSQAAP
Text: […]

[11] = molecular target: T11, LDHB peptide VIKLKGYTNWAIGLS; experiment: SPR sensorgrams (Response in RU), series 15.625-500 nM
T11 construct: also called l-lactate dehydrogenase B chain (LDHB) isoform X1 peptide
T11 peptide: VIKLKGYTNWAIGLS

[12] = molecular target: T12, MALRD1 peptide TQDSEDDLDWAIGSR; experiment: as above
T12 construct: also called MAM and LDL-receptor class A domain-containing protein 1 isoform X1 peptide
T12 peptide: TQDSEDDLDWAIGSR

B1: STC43H11-1 (antibody, V domains shown)
VH: QSLEESGGRLVTPGGSLTLTCTVSGIDLSSYAMGWVRQAPGEGLEWIGSIGTGGGTGYASWAKGRFTISKTSTTVDLKMTSLTASDTATYFCATSNLWGPGTLVTVSS
VL: QVLTQTASPVSAAVGGTVTINCQASQSVYNNNRCSWFQQKPGQPPKRLIYHTSTLDSGVPSRFKGSGSGTQFTLTISDVQCDDAATYYCLGNYDCSRADCAAFGGGTEVVVK
notes: From immunized New Zealand rabbits; IgG heavy chain and Kappa light chain; also called clone #43H11; Clone 43H11
Kd [1]: 1.39 nM | koff [1]: 0.000425 s⁻¹ | kon [1]: 306000 M⁻¹ s⁻¹ | Kd [2]: 0.0844 nM | koff [2]: 1.62e-05 s⁻¹ | kon [2]: 192000 M⁻¹ s⁻¹ | Kd [3]: 4.95 nM | koff [3]: 0.00106 s⁻¹ | kon [3]: 215000 M⁻¹ s⁻¹ | Kd [4]: 1.77 nM | koff [4]: 0.000822 s⁻¹ | kon [4]: 464000 M⁻¹ s⁻¹ | Kd [5]: 10.6 nM | koff [5]: 0.000778 s⁻¹ | kon [5]: 73600 M⁻¹ s⁻¹ | Kd [6]: 13.5 nM | koff [6]: 0.00082 s⁻¹ | kon [6]: 60900 M⁻¹ s⁻¹ | Kd [7]: 39.1 nM | koff [7]: 0.0101 s⁻¹ | kon [7]: 258000 M⁻¹ s⁻¹ | Kd [8]: 621 nM | koff [8]: 0.1 s⁻¹ | kon [8]: 162000 M⁻¹ s⁻¹ | Kd [9]: 1.72 nM | koff [9]: 0.000146 s⁻¹ | kon [9]: 84800 M⁻¹ s⁻¹ | binding result [10]: binds | binding result [11]: no binding (tested: 500 nM) | binding result [12]: no binding (tested: 500 nM)
